According to patent US20220235144A1 (QILU PUGET SOUND BIOTHERAPEUTICS, published 2022):
Where a chain is given by its changes, count along the chain named. Each block holds one binder with its values, some of them ahead of it.

Columns and labels:
[1] = molecular target: T1, hSIRPαV2D1 with histidine tag (human); experiment: SPR (Biacore 3000), IgG captured on anti-human IgG, His-tagged D1 analyte
T1 construct: analyte of the Biacore experiments; also called first immunoglobulin-like domain of human SIRPα variant V2; not shown: histidine tag
T1 sequence (chain, as listed by the source limits assumed): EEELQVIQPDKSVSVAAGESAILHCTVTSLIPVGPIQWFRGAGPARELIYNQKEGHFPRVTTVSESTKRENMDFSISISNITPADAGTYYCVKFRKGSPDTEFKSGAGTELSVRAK
Text: (§1) Goat anti-human IgG capture antibody (Jackson Laboratories; 109-005-098) was immobilized on the four flow cells in each sensor chip using standard amine coupling chemistry. About 8000 resonance units (RU) of this antibody was immobilized on each flow cell. Flow cells 2, 3, and 4 were used to analyze captured anti-SIRPα antibodies (about 250 to 300 RU were captured on each of flow cells 2, 3, and 4), while flow cell 1 was used as the reference flow cell. The analytes tested were hSIRPαV1D1, hSIRPαV2D1, cynomolgus monkey SIRPαV1D1 (cSIRPαV1D1), cSIRPαV2D1, hSIRPβ1D1, and hSIRPγD1, each of which also included a histidine tag. The sequences of cSIRPαV1D1 and cSIRPαV2D2 are provided in SEQ ID NOs: 143 and 142, respectively. To avoid confusion, the differences between the amino acid sequences of cSIRPαV1D1 and cSIRPαV2D1 are not the same as the differences between the amino acid sequences of hSIRPαV1D1 and hSIRPαV2D1. […] The amino acid sequence of hSIRPβ1D1 can be found in amino acids 30-148 of SEQ ID NO: 144, and the amino acid sequence of hSIRPγD1 can be found in amino acids 31-149 of SEQ ID NO: 141.
(§2) Generally, concentrations from about 0.1×KD to about 10×KD are appropriate for kinetic analysis. From one to six different concentrations were evaluated for each antibody:analyte interaction, depending on the comparisons to be made in an individual experiment. All analyte dilutions were prepared in HPS-EP buffer. Multiple blank (running buffer) injections were run and used to assess and subtract system artifacts. The association phase and dissociation phase for all analyte concentrations were monitored for 180 seconds and 300 seconds, respectively, at a flow rate of 50 μL/min. Between antibody samples, the surfaces of the flow cells were regenerated with 10 mM glycine, pH 1.5 using two injections, each lasting 12 seconds at a flow rate of 50 μL/min.
(§3) The data were analyzed using BIAevaluation software (Biacore, General Electric (GE)). The data was fit using the 1:1 Langmuir model.

[2] = molecular target: T2, cSIRPαV2D1 with histidine tag (cynomolgus monkey (Macaca fascicularis), UniProt Q5TFQ8 30-146 (human entry)); experiment: as above
T2 construct: also called cynomolgus monkey SIRPαV2D1; not shown: histidine tag
T2 chain: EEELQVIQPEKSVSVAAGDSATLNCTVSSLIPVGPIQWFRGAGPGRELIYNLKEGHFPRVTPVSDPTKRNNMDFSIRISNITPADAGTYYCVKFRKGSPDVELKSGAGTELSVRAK
Text: as §1, §2, §3

[3] = molecular target: T3, hSIRPαV1D1 with histidine tag (human, UniProt P78324 31-147); experiment: as above
T3 construct: analyte of the Biacore experiments; also called first immunoglobulin-like domain of human SIRPα variant V1; not shown: histidine tag
T3 sequence (P78324 31-147 limits assumed): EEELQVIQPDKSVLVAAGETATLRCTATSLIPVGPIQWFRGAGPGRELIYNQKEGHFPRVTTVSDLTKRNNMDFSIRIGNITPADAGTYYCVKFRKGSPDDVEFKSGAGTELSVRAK
Text: as §1, §2, §3

[4] = molecular target: T4, hSIRPγD1 with histidine tag (human, UniProt Q9P1W8 31-149); experiment: as above
T4 construct: also called first immunoglobulin-like domain of human SIRP Gamma; not shown: histidine tag
T4 sequence (Q9P1W8 31-149): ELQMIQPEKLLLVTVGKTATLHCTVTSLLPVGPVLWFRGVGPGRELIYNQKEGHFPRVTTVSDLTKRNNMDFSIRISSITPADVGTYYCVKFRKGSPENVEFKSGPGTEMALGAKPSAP
Text: as §1, §2, §3

[5] = molecular target: T5, cSIRPαV1D1 with histidine tag (cynomolgus monkey (Macaca fascicularis), UniProt Q5TFQ8 30-146 (human entry)); experiment: as above
T5 construct: also called cynomolgus monkey SIRPαV1D1; not shown: histidine tag
T5 chain: T2 chain with D19E, V27A, S28T, A42V, N51H, L52Q
Text: as §1, §2, §3

[6] = molecular target: T6, hSIRPβ1D1 with histidine tag (human, UniProt O00241 30-148); experiment: as above
T6 construct: analyte of the Biacore experiments; also called hSIRPβD1; not shown: histidine tag
T6 sequence (O00241 30-148): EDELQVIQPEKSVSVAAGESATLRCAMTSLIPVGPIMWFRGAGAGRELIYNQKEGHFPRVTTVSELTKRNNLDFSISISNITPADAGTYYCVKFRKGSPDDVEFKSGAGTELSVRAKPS
Text: as §1, §2, §3

[7] = molecular target: T7, hSIRPαV2 expressed on the cell surface (human, UniProt P78324 31-504); experiment: FACS competition on EXPI293 cells stably expressing hSIRPαV2: biotinylated hCD47:Fc (2.5 µg/ml) mixed with serial dilutions of the antibody, bound hCD47:Fc detected with streptavidin-PE (MFI); blocked ligand: hCD47:Fc
T7 construct: whole, on cells; also called human SIRPα variant V2
T7 sequence (P78324 other isoform, or with tags, fused parts or gaps limits assumed): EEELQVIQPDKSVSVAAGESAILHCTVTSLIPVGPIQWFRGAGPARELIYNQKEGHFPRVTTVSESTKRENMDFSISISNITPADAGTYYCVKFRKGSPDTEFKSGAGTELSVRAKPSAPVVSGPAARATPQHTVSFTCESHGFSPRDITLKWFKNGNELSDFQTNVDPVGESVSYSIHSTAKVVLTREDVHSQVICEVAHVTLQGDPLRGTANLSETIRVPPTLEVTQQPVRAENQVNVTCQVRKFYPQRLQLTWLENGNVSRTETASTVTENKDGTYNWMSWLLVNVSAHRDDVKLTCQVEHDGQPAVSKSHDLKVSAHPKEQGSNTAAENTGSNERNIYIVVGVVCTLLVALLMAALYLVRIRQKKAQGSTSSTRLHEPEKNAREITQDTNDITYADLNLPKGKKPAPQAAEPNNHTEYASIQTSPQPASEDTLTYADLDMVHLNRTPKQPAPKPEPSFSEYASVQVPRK
Method: The x axes show the antibody concentration in μg/ml. The y axes show mean fluorescence intensity (MFI) at about 572 nm (due to binding of biotinylated CD47:Fc, detected by a streptavidin-phycoerythrin conjugate).
Some of the anti-SIRPα antibodies described above were tested in vitro for their ability to inhibit binding of CD47 to hSIRPαV1 or hSIRPαV2 expressed on the surface of EXPI293™ cells stably transfected with DNA encoding these proteins. Briefly, stable transfectants expressing hSIRPαV1 or hSIRPαV2 were seeded into 96-well microtiter plates. […] After 30 minutes incubation, cells were washed, streptavidin-phycoerythrin (streptavidin-PE) was added, and cells were subjected to FACS to detect bound hCD47:Fc. Results were reported as a mean fluorescence intensity (MFI) using FlowJo software (FLOWJO, L.L.C., Ashland, Oreg., USA). FIGS. 4 and 5 show the MFI detected on the y axes of both panels and the antibody concentration on the x axes of both panels.

[8] = molecular target: T7, hSIRPαV2 expressed on the cell surface; experiment: flow cytometry on primary human monocytes (FSC/SSC gate) in PBMCs expressing only SIRPαV2, antibody detected with APC-(Fab)2 goat anti-human IgG Fc (MFI at about 670 nm)
Method: FIG. 6: Binding of anti-SIRPα antibodies to T cells and monocytes. Methods are described in Example 4. […] The x axes show the antibody concentration in μg/ml. The y axes show mean fluorescence intensity (MFI) at about 670 nm (due to binding of allophycocyanin (APC)-conjugated (Fab)₂ goat anti-human IgG Fc-specific secondary antibody).
Some of the anti-SIRPα antibodies were tested in vitro for binding to primary T cells and monocytes in peripheral blood mononuclear cells (PBMCs). Briefly, PBMCs that expressed only SIRPα V2 were seeded in 96-well microtiter plates. Serial dilutions of anti-SIRPα antibodies were incubated with the cells on ice for 30 minutes. […] The cells were then subjected to FACs. T cells were gated based on their anti-CD4 or anti-CD8 binding (detected by FITC fluorescence), since T cells commonly express either CD4 or CD8. Monocytes were gated based on their forward scatter/side scatter (FSC/SSC) profile, since a characteristic FSC/SSC profile can identify monocytes. See, e.g., Marimuthu et al., Characterization of human monocytes subsets by whole blood flow cytometry analysis, J. Vis. Exp. (140), e57941, doi:10.3791/57941 (2018). The binding of anti-SIRPα antibodies to each population was reported as a mean fluorescence intensity (MFI) of the APC channel (670 nm).

B1: Ab4_G4 (antibody, human IgG4 S228P, kappa)
heavy: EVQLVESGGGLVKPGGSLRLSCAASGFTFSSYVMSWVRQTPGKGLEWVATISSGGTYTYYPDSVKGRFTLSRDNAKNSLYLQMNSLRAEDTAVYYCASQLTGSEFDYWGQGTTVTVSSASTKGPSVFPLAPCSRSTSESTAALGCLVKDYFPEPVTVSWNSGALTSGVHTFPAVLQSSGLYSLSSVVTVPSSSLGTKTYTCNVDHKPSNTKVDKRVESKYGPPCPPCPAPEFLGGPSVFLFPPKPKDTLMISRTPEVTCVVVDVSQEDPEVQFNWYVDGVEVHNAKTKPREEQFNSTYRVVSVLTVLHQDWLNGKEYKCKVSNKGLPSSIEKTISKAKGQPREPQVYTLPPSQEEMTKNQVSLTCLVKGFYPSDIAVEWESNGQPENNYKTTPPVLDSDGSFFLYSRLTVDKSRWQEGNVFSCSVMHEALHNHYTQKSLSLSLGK
light: DIVITQSPASLAVSLGERATISCRASESVDSYGNSFMHWYQQKPGQPPKLLIYRASNLESGVPDRFSGSGSRTDFTLTINPLQAEDVATYYCHQSADLPWTFGGGTKVEIKRTVAAPSVFIFPPSDEQLKSGTASVVCLLNNFYPREAKVQWKVDNALQSGNSQESVTEQDSKDSTYSLSSTLTLSKADYEKHKVYACEVTHQGLSSPVTKSFNRGEC
notes: human IgG4 format
- Kd [1]: 4.04 nM
- Kd [2]: ~714 nM
- Kd [3]: 307 nM
- Kd [4]: ~4560 nM
- Kd [5]: 165 nM
- Kd [6]: 24.3 nM

B3: Ab12_G4 (antibody, human IgG4 S228P, kappa)
heavy: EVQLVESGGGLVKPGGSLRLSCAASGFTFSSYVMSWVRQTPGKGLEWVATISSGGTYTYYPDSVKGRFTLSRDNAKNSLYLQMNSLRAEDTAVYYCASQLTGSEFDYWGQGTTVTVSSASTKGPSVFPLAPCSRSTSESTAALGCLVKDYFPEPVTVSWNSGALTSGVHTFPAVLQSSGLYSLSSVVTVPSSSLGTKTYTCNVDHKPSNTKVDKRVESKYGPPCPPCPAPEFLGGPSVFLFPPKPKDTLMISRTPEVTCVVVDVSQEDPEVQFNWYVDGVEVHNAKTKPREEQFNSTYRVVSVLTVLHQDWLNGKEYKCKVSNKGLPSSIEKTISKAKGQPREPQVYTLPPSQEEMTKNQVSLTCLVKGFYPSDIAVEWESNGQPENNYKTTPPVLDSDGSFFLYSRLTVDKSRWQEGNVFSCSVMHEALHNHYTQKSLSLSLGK
light: B1 light with I4L
notes: human IgG4 format
- Kd [1]: 4.6 nM
- Kd [2]: ~727 nM
- Kd [3]: 348 nM
- Kd [4]: ~5020 nM
- Kd [5]: 197 nM
- Kd [6]: 29 nM

B4: Ab2_G4 (antibody, human IgG4 S228P, kappa, V domains shown)
VH: EVQLVESGGGLVKPGGSLRLSCAASGFTFSSYVMSWVRQTPGKGLEWVATISSGGTYTYYPDSVKGRFTLSRDNAKNSLYLQMNSLRAEDTAVYYCASSVDGSAFDYWGQGTTVTVSS
VL: DIVITQSPASLAVSLGERATISCRASESVDSYGMSFMHWYQQKPGQPPKLLIYRASNLESGVPDRFSGSGSRTDFTLTINPLQAEDVATYYCHQSSENLPWTFGGGTKVEIKR
notes: human IgG4 format
- Kd [1]: 3.06 nM
- Kd [2]: ~709 nM
- Kd [3]: 226 nM
- Kd [4]: ~944 nM
- Kd [5]: 145 nM
- Kd [6]: 53.6 nM

B5: Ab1_G2 (antibody, human IgG2, V domains shown)
VH: B4 VH with D62S, V100L, D101T, A104S
VL: B4 VL with I4L, S31L, M34T, E97D, N98E
- Kd [1]: 2.51 nM
- Kd [2]: 287 nM
- Kd [3]: 50.7 nM
- Kd [4]: 168 nM
- Kd [5]: 26.9 nM
- Kd [6]: 1.39 nM

Other lines, results leading:

- Kd [1]: 6.02 nM
- Kd [2]: ~1050 nM
- Kd [3]: 411 nM
- Kd [4]: ~6200 nM
- Kd [5]: 256 nM
- Kd [6]: 44.3 nM
B2: Ab8_G4 (antibody, human IgG4 S228P, kappa, V domains shown)
VH: B4 VH with D62E, S99Q, V100L, D101T, A104E
VL: DIVMTQSPASLAVSLGERATISCRASESVDSYGNSFMHWYQQKPGQPPKLLIYRASNLESGVPDRFSGSGSRTDFTLTINPLQAEDVATYYCHQSADLPWTFGGGTKVEIKR
notes: human IgG4 format

- Kd [1]: 1.92 nM
- Kd [2]: ~475 nM
- Kd [3]: 125 nM
- Kd [4]: ~3060 nM
- Kd [5]: 98 nM
- Kd [6]: 8.58 nM
B6: Ab11_G2 (antibody, human IgG2, V domains shown)
VH: B4 VH with S99Q, V100L, D101T, A104E
VL: B2 VL with M4I, A96G
notes: same antibody as Ab11_G4 except human IgG2 CH1, hinge, CH2 and CH3

- Kd [1]: 2.97 nM
- Kd [2]: ~432 nM
- Kd [3]: 102 nM
- Kd [4]: ~616 nM
- Kd [5]: 183 nM
- Kd [6]: 6.43 nM
- IC50 (read off the curve) [7]: ~0.4 µg/mL
B7: Ab9_G4 (antibody, human IgG4 S228P, kappa, V domains shown)
VH: B4 VH with D62N, A97V, V100M, D101T, A104S
VL: B4 VL with M34N, N98Q
notes: human IgG4 format

- Kd [1]: 2.11 nM
- Kd [2]: ~426 nM
- Kd [3]: 75 nM
- Kd [4]: ~457 nM
- Kd [5]: 155 nM
- Kd [6]: 6.63 nM
B8: Ab9_G2 (antibody, human IgG2, V domains shown)
VH: B4 VH with D62N, A97V, V100M, D101T, A104S
VL: B4 VL with M34N, N98Q
notes: same antibody as Ab9_G4 except human IgG2 CH1, hinge, CH2 and CH3

- EC50 (read off the curve) [8]: ~0.03 µg/mL
- Kd [1]: 0.956 nM
- Kd [3]: 21.4 nM
- Kd [4]: 140 nM
- Kd [5]: 8.59 nM
- Kd [6]: 0.217 nM
B9: Ab24_G4 (antibody, human IgG4 S228P, kappa)
heavy: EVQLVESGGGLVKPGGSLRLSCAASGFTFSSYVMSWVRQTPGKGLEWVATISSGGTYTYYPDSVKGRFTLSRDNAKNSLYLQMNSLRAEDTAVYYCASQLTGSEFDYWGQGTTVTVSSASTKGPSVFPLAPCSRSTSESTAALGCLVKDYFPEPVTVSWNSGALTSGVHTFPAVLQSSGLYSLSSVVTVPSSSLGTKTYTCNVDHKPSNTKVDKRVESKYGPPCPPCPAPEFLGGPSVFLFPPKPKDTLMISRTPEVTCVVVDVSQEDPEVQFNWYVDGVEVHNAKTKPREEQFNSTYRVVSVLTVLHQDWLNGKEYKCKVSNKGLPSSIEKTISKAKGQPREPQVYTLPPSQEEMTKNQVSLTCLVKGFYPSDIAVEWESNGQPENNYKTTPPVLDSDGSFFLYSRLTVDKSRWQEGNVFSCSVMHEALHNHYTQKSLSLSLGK
light: DIVLTQSPASLAVSLGERATISCRASESVDLYGTSFMHWYQQKPGQPPKLLIYRASNLESGVPDRFSGSGSRTDFTLTINPLQAEDVATYYCHQSSDELPWTFGGGTKVEIKRTVAAPSVFIFPPSDEQLKSGTASVVCLLNNFYPREAKVQWKVDNALQSGNSQESVTEQDSKDSTYSLSSTLTLSKADYEKHKVYACEVTHQGLSSPVTKSFNRGEC
notes: human IgG4 format
